Experimental findings from patent US20250277036A1 (POLYGON THERAPEUTICS, published 2025) are described below.

Assay [1] concerns the target T1, Biotinylated recombinant human CD8α (Fisher Scientific #17196181) (human, UniProt P01732 22-182, biotinylated (site not stated)).
T1 construct: Bought protein; also called hCD8α; recombinant human CD8α protein
The assay is described as follows: dose-response ELISA on biotinylated human CD8α captured on streptavidin, human IgG1 format. Here is the method: (§1) […] of streptavidin were coated on Nunc Maxisorp 96-well plates (ThermoFisher #442404) at 100 μL/well and incubated 1 hour at room temperature. Biotinylated human CD8α (Fisher Scientific #17196181) and mouse CD8α (Sino biological #50389-M08H-B) were added at 0.5 μg/mL in 100 μL/well and incubated overnight at 4° C. Human CD4 (Sino biological #10400-H08H) was coated passively at 1 μg/mL in 100 μL/well and incubated overnight at 4° C. Plates were then blocked using 200 μL of PBS containing 4% skimmed milk for 1 hour at room temperature.
(§2) The three antibody clones (in both human IgG1 lambda and rat IgG2b kappa formats) were diluted in milk-PBS and tested at different concentrations (75, 25, 8.3, 2.8, 0.93, 0.31, 0.103, 0.034, 0.011, 0.0038, 0.0013 and 0.00042 μg/mL). 100 μL/well were incubated 1 hour at room temperature.
(§3) TMB ((3,3′,5,5′ tetramethylbenzidine) Thermo Scientific #12617087) was added for a 3-minute incubation. Reaction was stopped with H₂SO₄ and absorbance at 450 nm was read on a microplate reader (Pherastar FS, BMG Labtech).

Assay [2] deals with T2, Recombinant human CD4 (Sino biological #10400-H08H) (human, UniProt P01730 26-390). The assay is described as follows: dose-response ELISA on coated human CD4, human IgG1 format. Here is the method:
as §1, §2, §3
On the technique in general: ELISA stands for enzyme-linked immunosorbent assay.

The target in assay [3] is T3, Biotinylated recombinant mouse CD8α (Sino biological #50389-M08H-B) (mouse, UniProt P01731 28-196, biotinylated (site not stated)). Description: dose-response ELISA, human IgG1 format. Here is the method: as §1, §2, §3
T3 sequence (P01731 28-196 limits assumed, stated change not applied): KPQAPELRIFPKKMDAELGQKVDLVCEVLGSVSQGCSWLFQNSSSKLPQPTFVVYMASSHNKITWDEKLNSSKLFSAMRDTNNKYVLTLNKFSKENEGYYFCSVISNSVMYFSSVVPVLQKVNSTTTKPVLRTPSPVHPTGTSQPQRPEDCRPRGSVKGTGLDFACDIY
Assay [4] concerns the target T2, Recombinant human CD4 (Sino biological …). Description: dose-response ELISA on coated human CD4, rat IgG2b format. Here is the method:
as §1, §2, §3

The target of assay [5] is T3, Biotinylated recombinant mouse CD8α …. Description: dose-response ELISA, rat IgG2b format. Here is the method: as §1, §2, §3
Assay [6] has as its target T1, Biotinylated recombinant human CD8α …. Description: dose-response ELISA on biotinylated human CD8α captured on streptavidin, rat IgG2b format. Here is the method: as §1, §2, §3

Changes are numbered by the printed parent chain.

T1 sequence (P01732 22-182 limits assumed): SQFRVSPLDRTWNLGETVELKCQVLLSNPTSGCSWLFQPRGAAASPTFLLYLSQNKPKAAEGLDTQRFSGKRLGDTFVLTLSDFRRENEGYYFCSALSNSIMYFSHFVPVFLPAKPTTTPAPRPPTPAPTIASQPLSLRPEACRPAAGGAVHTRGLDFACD

B1: MP08-R3-F08 in the human IgG1 lambda format (antibody, V domains shown)
VH: EVQLVESGGSLVKPGGSLRLSCAASGFTFSNNAMNWVRQAPGKGLEWISDISGSSRYIGYADFVKGRFTISRDNAKNSLYLQMNSLRAEDTAVYYCVRSSNYYDYNADAMDVWGRGTLVTVSS
VL: QSVLTQPASVSGSPGQSITISCAGTSSDVGGNSYVSWYQQHPGKAPKLMIYSDSSRPSGVSNRFSGSKSGNTASLTISGLQAEDEADYYCSSYTQYSTRVFGGGTKLAVLG
notes: Whole human IgG1 lambda made in ExpiCHO cells; also called hMP08-R3-F08; MP08-R3-F08 human IgG1 clone; copies: 2 + 2
As usually defined, the EC50 is the concentration needed to bring the measured effect to its halfway point. For the molecule B1, the EC50 in assay [1] was 0.28 nM. Besides, the binding result in assay [2] and in assay [3] was “no binding (tested: 75 µg/mL (highest concentration tested))” in each case.

B2: MP08-R3-F08 in the rat IgG2b kappa format (antibody, V domains shown)
VH: B1 VH
VL: QSVLTQPASVSGSPGQSITISCAGTSSDVGGNSYVSWYQQHPGKAPKLMIYSDSSRPSGVSNRFSGSKSGNTASLTISGLQAEDEADYYCSSYTQYSTRVFGGGTKLAVL
notes: Same VH and VL cloned into a rat IgG2b kappa format; also called MP08-R3-F08 rat IgG2b
Turning to B2, the binding result in assay [4] and in assay [5] was “no binding (tested: 75 µg/mL (highest concentration tested))” throughout. Also, the EC50 in assay [6] was 0.2 nM.

B3: MP08-R3-C11 in the rat IgG2b kappa format (antibody, V domains shown)
VH: EVQLVESGGSLVKPGGSLRLSCAASGFTFSNYDMNWVRQAPGKGLEWISDISGSSSYIDYADFVKGRFTISRDNAKNSLYLQMNSLRAEDTAVYYCVRSSYYSGSGMDVWGRGTLVTVSS
VL: B2 VL with N32G, Y34S, S52Q, S55Y, Q95Y
notes: Same VH and VL cloned into a rat IgG2b kappa format; also called MP08-R3-C11 rat IgG2b
As for B3, the binding result in assay [4] and in assay [5] was “no binding (tested: 75 µg/mL (highest concentration tested))” each time. Further, the EC50 in assay [6] is 0.48 nM.

B4: MP09-R3-D03 in the human IgG1 lambda format (antibody, V domains shown)
VH: EVQLVESGGSLVKPGGSLRLSCAASGFTFSNYYMNWVRQAPGKGLEWISSISGSSRYIYYADFVKGRFTISRDNAKNSLYLQMNSLRAEDTAVYYCVRSSGSYFGNAMDVWGRGTLVTVSS
VL: B2 VL with N32Y, S33Y, Y34S, S52Y, Y93D, Q95S
notes: Whole human IgG1 lambda made in ExpiCHO cells; also called hMP09-R3-D03; MP09-R3-D03 human IgG1 clone
As for B4, in assay [1], the EC50 was determined as 2 nM. The binding result in assay [2] and in assay [3] was “no binding (tested: 75 µg/mL (highest concentration tested))” each time.

B5: MP09-R3-D03 in the rat IgG2b kappa format (antibody, V domains shown)
VH: B4 VH
VL: B2 VL with N32Y, S33Y, Y34S, S52Y, Y93D, Q95S
notes: Same VH and VL cloned into a rat IgG2b kappa format; also called MP09-R3-D03 rat IgG2b; MP09-R3-D3
In the case of B5, the binding result in assay [4] and in assay [5] was “no binding (tested: 75 µg/mL (highest concentration tested))” each time. The EC50 in assay [6] worked out at 0.99 nM.

B6: MP08-R3-C11 in the human IgG1 lambda format (antibody, V domains shown)
VH: B3 VH
VL: B2 VL with N32G, Y34S, S52Q, S55Y, Q95Y
notes: Whole human IgG1 lambda made in ExpiCHO cells; also called hMP08-R3-C11; MP08-R3-C11 human IgG1 clone
For B6, the EC50 in assay [1] stood at 2.4 nM. The binding result in assay [2] and in assay [3] was “no binding (tested: 75 µg/mL (highest concentration tested))” each time.
